PMC11514458
Numbering of substitutions follows the chain as printed.

Key:
DX2 complex [1] = target: T1, DX2 complex (human, UniProt O75771;O43543 1-328;1-280); experiment: EMSA; strong binding; EMSA: 20 mM Tris-HCl pH 7.5, 2 mM MgCl2, 2 mM ATP, 37 C, 20 nM DNA, glutaraldehyde fixation; stopped-flow: 25 mM Tris-HCl pH 7.5, 5 mM MgCl2, 50 mM KCl, 2 mM ATP, 0.5 mM EDTA, 10% glycerol, 37 C; BLI: 50 mM Tris-HCl pH 7.5, 2 mM ATP, 50 mM KCl, 5 mM MgCl2, 0.05% Tween 20, room temperature; details: protein: recombinant; tags: His-tag; copies: 1;1; label: internal FITC; reversed fork of 4 strands with ssDNA overhang
T1 sequence 1: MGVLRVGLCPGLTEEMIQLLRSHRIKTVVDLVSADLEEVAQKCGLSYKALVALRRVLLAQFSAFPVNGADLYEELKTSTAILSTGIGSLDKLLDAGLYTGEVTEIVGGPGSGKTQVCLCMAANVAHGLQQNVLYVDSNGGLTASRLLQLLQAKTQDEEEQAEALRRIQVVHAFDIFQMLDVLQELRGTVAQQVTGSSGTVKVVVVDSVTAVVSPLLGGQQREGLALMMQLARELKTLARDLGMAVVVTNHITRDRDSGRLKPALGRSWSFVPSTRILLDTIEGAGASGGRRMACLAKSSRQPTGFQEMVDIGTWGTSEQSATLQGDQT
T1 sequence 2: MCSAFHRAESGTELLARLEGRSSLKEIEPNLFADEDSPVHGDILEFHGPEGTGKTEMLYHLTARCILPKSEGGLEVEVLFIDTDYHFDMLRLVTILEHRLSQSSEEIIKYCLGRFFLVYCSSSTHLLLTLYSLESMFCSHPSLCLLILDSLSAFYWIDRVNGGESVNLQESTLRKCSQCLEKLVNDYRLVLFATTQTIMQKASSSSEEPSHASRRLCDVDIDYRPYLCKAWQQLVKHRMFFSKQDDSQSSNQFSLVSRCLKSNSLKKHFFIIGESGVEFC

BCDX2 complex [2] = target: T2, BCDX2 complex (human, UniProt O15315;O43502;O75771;O43543 1-384;1-376;1-328;1-280); experiment: as above; details: protein: recombinant; tags: Strep-tag and His-tag (XRCC2 N-terminal His); copies: 1;1;1;1; label: internal FITC; reversed fork of 4 strands with ssDNA overhang
T2 sequence 1: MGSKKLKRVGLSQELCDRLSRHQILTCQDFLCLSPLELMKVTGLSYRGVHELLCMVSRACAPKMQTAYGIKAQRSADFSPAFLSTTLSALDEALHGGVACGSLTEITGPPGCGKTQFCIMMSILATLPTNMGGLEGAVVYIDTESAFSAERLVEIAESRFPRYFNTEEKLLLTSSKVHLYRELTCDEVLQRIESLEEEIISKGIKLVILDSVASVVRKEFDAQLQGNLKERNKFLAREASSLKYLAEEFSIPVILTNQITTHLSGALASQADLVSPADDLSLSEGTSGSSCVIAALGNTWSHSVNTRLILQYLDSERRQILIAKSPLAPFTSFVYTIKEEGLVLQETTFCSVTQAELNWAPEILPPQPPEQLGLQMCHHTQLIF
T2 sequence 2: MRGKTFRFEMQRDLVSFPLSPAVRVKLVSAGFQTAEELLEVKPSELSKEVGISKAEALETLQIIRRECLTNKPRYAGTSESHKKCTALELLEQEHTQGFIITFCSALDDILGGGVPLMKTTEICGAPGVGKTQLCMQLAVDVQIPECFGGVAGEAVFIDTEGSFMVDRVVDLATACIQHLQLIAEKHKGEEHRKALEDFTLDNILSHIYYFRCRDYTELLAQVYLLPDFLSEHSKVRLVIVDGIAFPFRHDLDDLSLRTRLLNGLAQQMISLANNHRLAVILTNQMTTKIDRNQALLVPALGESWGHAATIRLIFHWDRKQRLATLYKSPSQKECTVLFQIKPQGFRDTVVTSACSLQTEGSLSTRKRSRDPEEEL
T2 sequence 3: T1 sequence 1
T2 sequence 4: T1 sequence 2

D(R266A)X2 = target: T3, D(R266A)X2 (UniProt O75771;O43543 1-328;1-280, R266A); experiment: EMSA; not significantly affected; EMSA: 20 mM Tris-HCl pH 7.5, 2 mM MgCl2, 2 mM ATP, 37 C, 20 nM DNA, glutaraldehyde fixation; stopped-flow: 25 mM Tris-HCl pH 7.5, 5 mM MgCl2, 50 mM KCl, 2 mM ATP, 0.5 mM EDTA, 10% glycerol, 37 C; BLI: 50 mM Tris-HCl pH 7.5, 2 mM ATP, 50 mM KCl, 5 mM MgCl2, 0.05% Tween 20, room temperature; details: protein: recombinant; copies: 1;1; label: internal FITC; reversed fork of 4 strands with ssDNA overhang
T3 sequence 1: T1 sequence 1 with R266A
T3 sequence 2: T1 sequence 2

DX2(R159A) = target: T4, DX2(R159A) (UniProt O75771;O43543 1-328;1-280, R159A); experiment: as above; details: protein: recombinant; copies: 1;1; label: internal FITC; reversed fork of 4 strands with ssDNA overhang
T4 sequence 1: T1 sequence 1
T4 sequence 2: T1 sequence 2 with R159A

BCDX2 complex [3] = target: T2, BCDX2 complex; experiment: EMSA; stronger than miniBRCA2; EMSA: 20 mM Tris-HCl pH 7.5, 2 mM MgCl2, 2 mM ATP, 37 C, 20 nM DNA, glutaraldehyde fixation; stopped-flow: 25 mM Tris-HCl pH 7.5, 5 mM MgCl2, 50 mM KCl, 2 mM ATP, 0.5 mM EDTA, 10% glycerol, 37 C; BLI: 50 mM Tris-HCl pH 7.5, 2 mM ATP, 50 mM KCl, 5 mM MgCl2, 0.05% Tween 20, room temperature; details: protein: recombinant; tags: Strep-tag and His-tag (XRCC2 N-terminal His); copies: 1;1;1;1; label: 5' FITC
BCDX2 complex [4] = target: T2, BCDX2 complex; experiment: EMSA; significant binding; EMSA: 20 mM Tris-HCl pH 7.5, 2 mM MgCl2, 2 mM ATP, 37 C, 20 nM DNA, glutaraldehyde fixation; stopped-flow: 25 mM Tris-HCl pH 7.5, 5 mM MgCl2, 50 mM KCl, 2 mM ATP, 0.5 mM EDTA, 10% glycerol, 37 C; BLI: 50 mM Tris-HCl pH 7.5, 2 mM ATP, 50 mM KCl, 5 mM MgCl2, 0.05% Tween 20, room temperature; details: protein: recombinant; tags: Strep-tag and His-tag (XRCC2 N-terminal His); copies: 1;1;1;1; label: 5' FITC
DX2 complex [5] = target: T1, DX2 complex; experiment: EMSA; EMSA: 20 mM Tris-HCl pH 7.5, 2 mM MgCl2, 2 mM ATP, 37 C, 20 nM DNA, glutaraldehyde fixation; stopped-flow: 25 mM Tris-HCl pH 7.5, 5 mM MgCl2, 50 mM KCl, 2 mM ATP, 0.5 mM EDTA, 10% glycerol, 37 C; BLI: 50 mM Tris-HCl pH 7.5, 2 mM ATP, 50 mM KCl, 5 mM MgCl2, 0.05% Tween 20, room temperature; details: protein: recombinant; tags: His-tag; copies: 1;1; label: 3' FITC
BC complex = target: T5, BC complex (human, UniProt O15315;O43502 1-384;1-376); experiment: as above; details: protein: recombinant; tags: Strep-tag; copies: 1;1; label: 3' FITC
T5 sequence 1: T2 sequence 1
T5 sequence 2: T2 sequence 2

BCDX2 complex [6] = target: T2, BCDX2 complex; experiment: EMSA; ATP, Mg2+; EMSA: 20 mM Tris-HCl pH 7.5, 2 mM MgCl2, 2 mM ATP, 37 C, 20 nM DNA, glutaraldehyde fixation; stopped-flow: 25 mM Tris-HCl pH 7.5, 5 mM MgCl2, 50 mM KCl, 2 mM ATP, 0.5 mM EDTA, 10% glycerol, 37 C; BLI: 50 mM Tris-HCl pH 7.5, 2 mM ATP, 50 mM KCl, 5 mM MgCl2, 0.05% Tween 20, room temperature; details: protein: recombinant; tags: Strep-tag and His-tag (XRCC2 N-terminal His); copies: 1;1;1;1; label: 3' FITC
BCDX2 complex [7] = target: T2, BCDX2 complex; experiment: EMSA; stronger than ssDNA; EMSA: 20 mM Tris-HCl pH 7.5, 2 mM MgCl2, 2 mM ATP, 37 C, 20 nM DNA, glutaraldehyde fixation; stopped-flow: 25 mM Tris-HCl pH 7.5, 5 mM MgCl2, 50 mM KCl, 2 mM ATP, 0.5 mM EDTA, 10% glycerol, 37 C; BLI: 50 mM Tris-HCl pH 7.5, 2 mM ATP, 50 mM KCl, 5 mM MgCl2, 0.05% Tween 20, room temperature; details: protein: recombinant, tags: Strep-tag and His-tag (XRCC2 N-terminal His), copies: 1;1;1;1

B1: RVF1 (mixed)
DNA 1: TGCCGAATTCTACCAGTGCCAGTGATGGACATCTTTGCCCACGTTGACCC
DNA 2: TGGGTCAACGTGGGCAAAGATGTCCTAGCAATGTAATCGTCTATGACGTT
DNA 3: TCGGATCCTCTAGACAGCTCCATGATCACTGGCACTGGTAGAATTCGGC
DNA 4: CAACGTCATAGACGATTACATTGCT
modifications: internal FITC at Z after nt 20 of strand 3
B1: binds (DX2 complex [1]); binds (BCDX2 complex [2]); binds (D(R266A)X2). B1: binds (DX2(R159A)).

B2: ssDNA 40mer (ssDNA)
DNA: CTAAGTTCGTCAGGATTCCAGCATTCTAACAGTCATAGCG
B2: binds (BCDX2 complex [3]).

B3: ssDNA 30mer (ssDNA)
DNA: GTACAAAGCTCTGGCATGATACTATGCGGC
B3: binds (BCDX2 complex [3]).

B4: ssDNA 15mer (ssDNA)
DNA: AGAAGAGAGCAGAGG
B4: binds (BCDX2 complex [4]).

B5: ssDNA 49mer (ssDNA)
DNA: AGCTACCATGCCTGCACGAATTAAGCAATTCGTAATCATGGTCATAGCT
B5: no binding (DX2 complex [5]); no binding (BC complex); binds (BCDX2 complex [6]).

B6: Y-form (mixed)
DNA 1: B5 DNA
DNA 2: AGCTATGACCATGATTACGAATTGCTTGGAATCCTGACGAACTGTAG
B6: binds (BCDX2 complex [7]; label: 3' FITC on strand 1, fork 1:2).

B7: 3' flap (mixed)
DNA 1: B5 DNA
DNA 2: B6 DNA 2
DNA 3: AATTCGTGCAGGCATGGTAGCT
B7: binds (BCDX2 complex [7]; label: 5' FITC on strand 1, flap 1:2 1:3).
